Results: paper PMC8313695

Molecular target: p-ERK1/2 (Thr202/Tyr204)
Assay: co-IP (IP: Flag, IB: p-ERK1/2), band intensity quantified in bar chart
Conditions: whole-cell extracts from MCF-7C5RN cells; without CGP57380; parent: est. 0.24; read off a plot

“Flag-WTAP (wild type) (from UniProt Q15007) S341A” was tested, and the response was 0.11.
